Substitutions are numbered along the chain they refer to.
T1: human LI-cadherin EC1-5 (human)
T1 chain: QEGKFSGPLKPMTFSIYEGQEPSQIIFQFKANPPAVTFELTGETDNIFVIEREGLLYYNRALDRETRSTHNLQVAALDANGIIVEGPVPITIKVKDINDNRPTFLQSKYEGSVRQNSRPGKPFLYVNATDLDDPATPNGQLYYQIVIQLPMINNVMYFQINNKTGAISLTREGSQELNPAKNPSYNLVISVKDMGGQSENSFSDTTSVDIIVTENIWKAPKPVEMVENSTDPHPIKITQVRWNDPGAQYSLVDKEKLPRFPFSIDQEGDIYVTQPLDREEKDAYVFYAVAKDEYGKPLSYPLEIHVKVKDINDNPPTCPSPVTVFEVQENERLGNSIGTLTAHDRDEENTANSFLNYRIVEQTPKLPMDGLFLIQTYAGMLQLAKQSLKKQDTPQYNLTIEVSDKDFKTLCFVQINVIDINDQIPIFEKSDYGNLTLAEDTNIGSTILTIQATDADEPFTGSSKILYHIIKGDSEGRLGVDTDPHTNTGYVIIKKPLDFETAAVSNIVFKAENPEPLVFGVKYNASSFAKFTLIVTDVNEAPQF

B1: human LI-cadherin EC1-4 N176A (domain or fragment)
chain: QEGKFSGPLKPMTFSIYEGQEPSQIIFQFKANPPAVTFELTGETDNIFVIEREGLLYYNRALDRETRSTHNLQVAALDANGIIVEGPVPITIKVKDINDNRPTFLQSKYEGSVRQNSRPGKPFLYVNATDLDDPATPNGQLYYQIVIQLPMINAVMYFQINNKTGAISLTREGSQELNPAKNPSYNLVISVKDMGGQSENSFSDTTSVDIIVTENIWKAPKPVEMVENSTDPHPIKITQVRWNDPGAQYSLVDKEKLPRFPFSIDQEGDIYVTQPLDREEKDAYVFYAVAKDEYGKPLSYPLEIHVKVKDINDNPPTCPSPVTVFEVQENERLGNSIGTLTAHDRDEENTANSFLNYRIVEQTPKLPMDGLFLIQTYAGMLQLAKQSLKKQDTPQYNLTIEVSDKDFKTLCFVQINVID
notes: human LI-cadherin, extracellular cadherin repeats 1-4, point mutant; Parent: m4; source: Expi293F cells, culture supernatant, purified (Ni-NTA IMAC, SEC)
B2: human LI-cadherin EC1-4 V210A (domain or fragment)
chain: B1 chain with A154N, V188A
notes: as for B1
B3: human LI-cadherin EC1-4 N222A (domain or fragment)
chain: B1 chain with A154N, N200A
notes: as for B1
B4: human LI-cadherin EC1-4 L355A (domain or fragment)
chain: B1 chain with A154N, L333A
notes: as for B1
B5: human LI-cadherin EC1-4 N371A (domain or fragment)
chain: B1 chain with A154N, N349A
notes: as for B1
B6: human LI-cadherin EC1-4 Y399A (domain or fragment)
chain: B1 chain with A154N, Y377A
notes: as for B1
B7: human LI-cadherin EC1-4 Q404A (domain or fragment)
chain: B1 chain with A154N, Q382A
notes: as for B1
B8: human LI-cadherin EC1-2 (domain or fragment)
chain: GPLKPMTFSIYEGQEPSQIIFQFKANPPAVTFELTGETDNIFVIEREGLLYYNRALDRETRSTHNLQVAALDANGIIVEGPVPITIKVKDINDNRPTFLQSKYEGSVRQNSRPGKPFLYVNATDLDDPATPNGQLYYQIVIQLPMINNVMYFQINNKTGAISLTREGSQELNPAKNPSYNLVISVKDMGGQSENSFSDTTSVDIIVTE
notes: human LI-cadherin, extracellular cadherin repeats 1-2; source: Expi293F cells, culture supernatant, purified (Ni-NTA IMAC, SEC)
B9: human LI-cadherin EC1-4 (domain or fragment)
chain: B1 chain with A154N
modifications: N-glycans (four modelled on chain A, two on chain B of the crystal structure; sites not given)
notes: human LI-cadherin, extracellular cadherin repeats 1-4; Theoretical mass without glycan 49.8 kDa; also called EC1-4WT; WT; source: Expi293F cells, culture supernatant, purified (Ni-NTA IMAC, SEC)
B10: human LI-cadherin EC1-5 (domain or fragment)
chain: T1 chain
modifications: N-glycosylated (Expi293F), Ca2+-bound; limits by convention: mature N-terminus as in PDB 7CYM (EC1-4), end of the UniProt Cadherin 5 domain; His tag omitted; homodimerizes / N-glycosylated …

What was measured:
[1] = target: the molecule itself; assay: SEC-MALS; Superose 12 10/300 GL, 45 μl injected at 100 μM or 50 μM, eluted at about 4 μM; protein conjugate analysis
[2] = target: the molecule itself; assay: AUC; sedimentation velocity (SV-AUC), 20 °C, buffer A (10 mM Hepes-NaOH pH 7.5, 150 mM NaCl, 3 mM CaCl2); EC1-7 at 1-20 μM, EC1-2, EC3-4, EC1-4, EC1-5 at 1-60 μM, EC1-4F224A at 1-120 μM; KD of the monomer-dimer equilibrium (dimer to monomers) from the weight-average sedimentation coefficient, SEDPHAT
human LI-cadherin EC1-5 = target: T1, human LI-cadherin EC1-5; assay: as above; details: both partners purified

Row | Binder | binding result [1] | other results
1 | B1 | binds | –
2 | B2 | binds | –
3 | B3 | binds | –
4 | B4 | binds | –
5 | B5 | binds | –
6 | B6 | binds | –
7 | B7 | binds | –
8 | B8 | – | Kd [2]: 75 µM; stoichiometry N [2]: 2
9 | B9 | – | Kd [2]: 39.8 µM; stoichiometry N [2]: 2
10 | B10 | – | Kd (human LI-cadherin EC1-5): 22.8 µM; stoichiometry N (human LI-cadherin EC1-5): 2

Reference: PMC8427231, “Mechanism of dimerization and structural features of human LI-cadherin” (The Journal of Biological Chemistry, 2021)
